From PMC8211825, “Molecular mechanism of calcium induced trimerization of C1q-like domain of otolin-1 from human and zebrafish” (Scientific Reports, 2021)

Target: the molecule itself
Assay: AUC; sedimentation velocity, c(s) analysis in SEDFIT; sevenfold (hOtolC1q forms) or 14-fold (dOtolC1q forms) molar excess of TbCl3; protein 0.20-0.25 mg/mL; self-association of the gC1q domain into trimers

Protein | stoichiometry N
hOtolC1q E417A (domain or fragment, human, UniProt A6NHN0 338-473, looked up, gC1q (C1q-like) domain of human otolin-1, UniProt A6NHN0, with E417A) ARVPRSAFSAGLSKPFPPPNIPIKFEKILYNDQGNYSPVTGKFNCSIPGTYVFSYHITVRGRPARISLVAQNKKQFKSRATLYGQEIDQASLLVILKLSAGDQVWLEVSKDWNGVYVSAEDDSIFTGFLLYPEETS | 3
hOtolC1q D425A (domain or fragment, human, UniProt A6NHN0 338-473, looked up, gC1q (C1q-like) domain of human otolin-1, UniProt A6NHN0, with D425A) ARVPRSAFSAGLSKPFPPPNIPIKFEKILYNDQGNYSPVTGKFNCSIPGTYVFSYHITVRGRPARISLVAQNKKQFKSRETLYGQEIAQASLLVILKLSAGDQVWLEVSKDWNGVYVSAEDDSIFTGFLLYPEETS | 3
hOtolC1q E417A D425A (domain or fragment, human, UniProt A6NHN0 338-473, looked up, gC1q (C1q-like) domain of human otolin-1, UniProt A6NHN0, with E417A and D425A; also called double mutant) ARVPRSAFSAGLSKPFPPPNIPIKFEKILYNDQGNYSPVTGKFNCSIPGTYVFSYHITVRGRPARISLVAQNKKQFKSRATLYGQEIAQASLLVILKLSAGDQVWLEVSKDWNGVYVSAEDDSIFTGFLLYPEETS | 3
dOtolC1q D432A (domain or fragment, zebrafish (Danio rerio), UniProt A5PN28 351-488, looked up, gC1q (C1q-like) domain of zebrafish otolin-1, UniProt A5PN28, with D432A; Same construct as m6 with the mutation) AVQKRSAFSVGLFPSRSFPPPGLPIRFDKIIYNEEAHWDPNASKFNCTHGGVYVFSYYITVRNRPLRAALVVNGIRKLRTRASLYGQDIDQASNMAVLRLSSGDQVWLETLRDWNGVYSSSEDDSTFSGFLLYADATK | 3
dOtolC1q D440A (domain or fragment, zebrafish (Danio rerio), UniProt A5PN28 351-488, looked up, gC1q (C1q-like) domain of zebrafish otolin-1, UniProt A5PN28, with D440A; Same construct as m6 with the mutation) AVQKRSAFSVGLFPSRSFPPPGLPIRFDKIIYNEEAHWDPNASKFNCTHGGVYVFSYYITVRNRPLRAALVVNGIRKLRTRDSLYGQDIAQASNMAVLRLSSGDQVWLETLRDWNGVYSSSEDDSTFSGFLLYADATK | 3
dOtolC1q D432A D440A (domain or fragment, zebrafish (Danio rerio), UniProt A5PN28 351-488, looked up, gC1q (C1q-like) domain of zebrafish otolin-1, UniProt A5PN28, with D432A and D440A; Same construct as m6 with the two mutations; also called double mutant) AVQKRSAFSVGLFPSRSFPPPGLPIRFDKIIYNEEAHWDPNASKFNCTHGGVYVFSYYITVRNRPLRAALVVNGIRKLRTRASLYGQDIAQASNMAVLRLSSGDQVWLETLRDWNGVYSSSEDDSTFSGFLLYADATK | 3
